{"source": "paper PMC12084609", "about": "“Structural insights into small-molecule agonist recognition and activation of complement receptor C3aR” (The EMBO Journal, 2025)", "type_in_all_cases": "cell-based", "key": {"[1]": {"molecular_target": "T1, C3aR Y174^ECL2A (Homo sapiens, UniProt Q16581, Y174A)", "T1 construct": "expressed in transfected cells; host or cells: HEK293T", "T1 sequence (Q16581 1-482 Y174A)": "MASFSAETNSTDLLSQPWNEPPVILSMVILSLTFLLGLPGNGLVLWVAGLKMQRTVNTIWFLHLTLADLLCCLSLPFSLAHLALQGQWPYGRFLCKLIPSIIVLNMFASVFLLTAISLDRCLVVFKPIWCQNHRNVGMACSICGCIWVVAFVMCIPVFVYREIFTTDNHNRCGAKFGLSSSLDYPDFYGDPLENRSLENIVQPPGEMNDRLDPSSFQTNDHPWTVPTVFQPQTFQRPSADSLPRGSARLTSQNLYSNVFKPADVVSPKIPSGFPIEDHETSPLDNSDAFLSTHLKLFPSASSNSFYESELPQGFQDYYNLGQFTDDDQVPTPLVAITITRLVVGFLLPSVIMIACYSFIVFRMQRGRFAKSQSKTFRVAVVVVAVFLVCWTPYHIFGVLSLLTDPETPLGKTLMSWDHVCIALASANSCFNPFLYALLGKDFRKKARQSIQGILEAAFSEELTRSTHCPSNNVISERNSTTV", "assay": "GloSensor-based cAMP assay, C3aR mutant Y174A", "conditions": "for cAMP response (% Forskolin): Y174ECL2A, single replicates", "method": "(§1) HEK293T cells were seeded on 6-well plates (NEST) and transfected with pGlosensor™-22F plasmids (Promega) and pcDNA3.1 plasmids encoding C3aR or its mutants an with N-terminal FLAG tag. After 48 h, cells were detached with Accutase solution (Sigma-Aldrich) and washed with PBS, and resuspended in assay buffer (CO2-independent medium with 0.5 mg mL^−1D-luciferin). 100,000–200,000 cells were seeded on 96-well white bottom plates (SPL) and incubated at 37 °C for 45 min followed by 45 min incubation at room temperature. After 90 min of incubation, basal luminescence signals were recorded. In total, 25 μl of test ligand with various concentrations and 1 μM Forskolin (Sigma-Aldrich) were treated to the cells and luminescence signals were measured by Tristar 2 LB 942 multimode reader (Berthold). […] Relative luminescence unit (%) was calculated with the signal of wells treated with vehicle as 0% and the signal of wells treated with 1 μM Forskolin as 100% (DiRaddo et al, [2014]). Nonlinear regression was performed using a three-parameter logistic equation."}, "[2]": {"molecular_target": "T2, C3aR L82^2.64A (Homo sapiens, UniProt Q16581, L82A)", "T2 construct": "expressed in transfected cells; host or cells: HEK293T", "T2 sequence (Q16581 1-482 L82A)": "T1 sequence (Q16581 1-482 Y174A) with L82A, A174Y", "assay": "GloSensor-based cAMP assay, C3aR mutant L82A", "conditions": "for cAMP response (% Forskolin): L822.64A, single replicates", "method": "as §1"}, "[3]": {"molecular_target": "T3, C3aR S26^1.35A (Homo sapiens, UniProt Q16581, S26A)", "T3 construct": "expressed in transfected cells; host or cells: HEK293T", "T3 sequence (Q16581 1-482 S26A)": "T1 sequence (Q16581 1-482 Y174A) with S26A, A174Y", "assay": "GloSensor-based cAMP assay, C3aR mutant S26A", "conditions": "for cAMP response (% Forskolin): S261.35A, single replicates", "method": "as §1"}, "[4]": {"conditions": "Dunnett's multiple comparisons test, WT minus mutant"}}, "note": "Numbering of substitutions follows the chain as printed. Several values for one entry are separate records, joined by “and”; a condition that tells them apart may be missing. Equal entries are not always repeated."}
{"substance": "C3a: anaphylatoxin C3a, natural peptide ligand of C3aR (a 77-amino acid peptide), Sigma-Aldrich", "values": [{"measurement": "Mean Diff. of pIC50, WT vs. Y174A", "setting": "[1]; [4]", "result": 0.586}, {"measurement": "cAMP response (% Forskolin)", "setting": "[1]; Log[C3a (M)] -7", "result": "9.91 % Forskolin and 12.64 % Forskolin and 15.55 % Forskolin and 17.18 % Forskolin and 6.28 % Forskolin"}, {"measurement": "cAMP response (% Forskolin)", "setting": "[1]; Log[C3a (M)] -8", "result": "29.94 % Forskolin and 34.61 % Forskolin and 37.29 % Forskolin and 78.77 % Forskolin and 47.80 % Forskolin"}, {"measurement": "cAMP response (% Forskolin)", "setting": "[1]; Log[C3a (M)] -9", "result": "93.29 % Forskolin and 98.24 % Forskolin and 97.28 % Forskolin and 106.07 % Forskolin and 106.88 % Forskolin"}, {"measurement": "cAMP response (% Forskolin)", "setting": "[1]; Log[C3a (M)] -10", "result": "95.65 % Forskolin and 102.82 % Forskolin and 100.47 % Forskolin and 102.58 % Forskolin and 97.30 % Forskolin"}, {"measurement": "cAMP response (% Forskolin)", "setting": "[1]; Log[C3a (M)] -11", "result": "98.42 % Forskolin and 110.81 % Forskolin and 110.05 % Forskolin and 103.42 % Forskolin and 89.46 % Forskolin"}, {"measurement": "cAMP response (% Forskolin)", "setting": "[1]; Log[C3a (M)] -12", "result": "91.57 % Forskolin and 98.11 % Forskolin and 107.79 % Forskolin and 100.25 % Forskolin and 103.20 % Forskolin"}, {"measurement": "ΔpIC50 ± SE of Diff.", "setting": "[1]; Y174^ECL2A relative to WT C3aR", "result": "-0.59 ± 0.09"}, {"measurement": "IC50", "setting": "[1]; Y174^ECL2A, dose-response plot, read-out: IC50", "result": 8.35, "unit": "nM"}, {"measurement": "pIC50 (Replicate)", "setting": "[1]; Y174^ECL2A, individual replicates", "result": "8.26 and 8.28 and 8.32 and 7.39 and 7.92"}, {"measurement": "pIC50 ± SEM (Mean)", "setting": "[1]; Y174^ECL2A, mean of independent experiments", "result": 8.04}, {"measurement": "Mean Diff. of pIC50, WT vs. L82A", "setting": "[2]; [4]", "result": -0.166}, {"measurement": "ΔpIC50 ± SE of Diff.", "setting": "[2]; L82^2.64A relative to WT C3aR", "result": "0.17 ± 0.05"}, {"measurement": "IC50", "setting": "[2]; L82^2.64A, dose-response plot, read-out: IC50", "result": 1.98, "unit": "nM"}, {"measurement": "pIC50 (Replicate)", "setting": "[2]; L82^2.64A, individual replicates", "result": "8.88 and 8.82 and 8.71 and 8.44"}, {"measurement": "pIC50 ± SEM (Mean)", "setting": "[2]; L82^2.64A, mean of independent experiments", "result": "8.71 ± 0.10 and 8.71"}, {"measurement": "cAMP response (% Forskolin)", "setting": "[2]; Log[C3a (M)] -7", "result": "6.88 % Forskolin and 9.71 % Forskolin and 10.14 % Forskolin and 11.39 % Forskolin"}, {"measurement": "cAMP response (% Forskolin)", "setting": "[2]; Log[C3a (M)] -8", "result": "8.74 % Forskolin and 11.60 % Forskolin and 12.67 % Forskolin and 19.68 % Forskolin"}, {"measurement": "cAMP response (% Forskolin)", "setting": "[2]; Log[C3a (M)] -9", "result": "57.84 % Forskolin and 63.09 % Forskolin and 70.46 % Forskolin and 87.20 % Forskolin"}, {"measurement": "cAMP response (% Forskolin)", "setting": "[2]; Log[C3a (M)] -10", "result": "90.69 % Forskolin and 88.60 % Forskolin and 91.27 % Forskolin and 91.83 % Forskolin"}, {"measurement": "cAMP response (% Forskolin)", "setting": "[2]; Log[C3a (M)] -11", "result": "96.32 % Forskolin and 92.63 % Forskolin and 98.10 % Forskolin and 96.40 % Forskolin"}, {"measurement": "cAMP response (% Forskolin)", "setting": "[2]; Log[C3a (M)] -12", "result": "96.44 % Forskolin and 101.07 % Forskolin and 97.65 % Forskolin and 97.10 % Forskolin"}, {"measurement": "Mean Diff. of pIC50, WT vs. S26A", "setting": "[3]; [4]", "result": 0.018}, {"measurement": "ΔpIC50 ± SE of Diff.", "setting": "[3]; S26^1.35A relative to WT C3aR", "result": "-0.018 ± 0.007"}, {"measurement": "IC50", "setting": "[3]; S26^1.35A, dose-response plot, read-out: IC50", "result": 2.4, "unit": "nM"}, {"measurement": "pIC50 (Replicate)", "setting": "[3]; S26^1.35A, individual replicates", "result": "8.46 and 8.90 and 8.92 and 8.44"}, {"measurement": "pIC50 ± SEM (Mean)", "setting": "[3]; S26^1.35A, mean of independent experiments", "result": 8.68}, {"measurement": "cAMP response (% Forskolin)", "setting": "[3]; Log[C3a (M)] -7", "result": "6.63 % Forskolin and 16.74 % Forskolin and 7.89 % Forskolin and 6.95 % Forskolin"}, {"measurement": "cAMP response (% Forskolin)", "setting": "[3]; Log[C3a (M)] -8", "result": "10.18 % Forskolin and 21.44 % Forskolin and 11.61 % Forskolin and 10.34 % Forskolin"}, {"measurement": "cAMP response (% Forskolin)", "setting": "[3]; Log[C3a (M)] -9", "result": "93.63 % Forskolin and 62.67 % Forskolin and 56.93 % Forskolin and 99.13 % Forskolin"}, {"measurement": "cAMP response (% Forskolin)", "setting": "[3]; Log[C3a (M)] -10", "result": "100.97 % Forskolin and 93.52 % Forskolin and 93.48 % Forskolin and 106.03 % Forskolin"}, {"measurement": "cAMP response (% Forskolin)", "setting": "[3]; Log[C3a (M)] -11", "result": "99.94 % Forskolin and 102.62 % Forskolin and 98.56 % Forskolin and 106.48 % Forskolin"}, {"measurement": "cAMP response (% Forskolin)", "setting": "[3]; Log[C3a (M)] -12", "result": "101.64 % Forskolin and 96.07 % Forskolin and 97.79 % Forskolin and 99.89 % Forskolin"}]}
